The results in this text go back to patent US6783760.

This experiment deals with anti-VCAM-1.tTF coaguligand (anti-VCAM-1 antibody IgG covalently linked via SMPT to truncated tissue factor with an added N-terminal cysteine) (human) (UniProt P13726). Put plainly: 125I-labeled 10H10 bound to anti-VCAM-1.tTF-treated IL-1α-activated bEnd.3 cells, gamma counting.
Sequence of UniProt P13726 (P13726 other isoform, or with tags, fused parts or gaps): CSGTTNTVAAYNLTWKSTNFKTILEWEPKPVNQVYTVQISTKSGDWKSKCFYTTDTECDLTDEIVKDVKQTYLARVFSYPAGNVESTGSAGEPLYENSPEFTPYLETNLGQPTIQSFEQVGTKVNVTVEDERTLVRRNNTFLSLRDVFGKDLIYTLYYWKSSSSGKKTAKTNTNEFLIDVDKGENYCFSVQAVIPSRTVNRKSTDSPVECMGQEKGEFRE

“10H10, mouse monoclonal antibody against human tissue factor” gave an anti-TF antibody bound to coaguligand-treated cells at saturation of 8.7 fmol and a molecules of anti-TF antibody bound per cell at saturation (molecules of anti-TF antibody per cell) of 540000.
